# Test results from publication PMC5770381.
# Key:
# Assay in all cases: purified protein
# [1] = tested on: CC1(C)S[C@@H]2[C@H](NC(=O)[C@H](N)c3ccc(O)cc3)C(=O)N2[C@H]1C(=O)O; conditions: Tris-HCl pH 7.4, 35 °C, 20-500 μM substrate
# [2] = tested on: CO/N=C(\C(=O)N[C@@H]1C(=O)N2C(C(=O)O)=C(COC(C)=O)CS[C@H]12)c1csc(N)n1; conditions: Tris-HCl pH 7.4, 35 °C, 10-100 μM substrate
# [3] = tested on: C[C@@H](O)[C@H]1C(=O)N2C(C(=O)O)=C(S[C@@H]3CN[C@H](C(=O)N(C)C)C3)[C@H](C)[C@H]12; conditions: Tris-HCl pH 7.4, 35 °C, 10-200 μM substrate
substance,measurement,setting,value
ElBla2 (Erythrobacter litoralis HTCC2594),Km,[1],39 ± 9 µM
same,kcat,[1],1.4 ± 0.1 s⁻¹
same,kcat/Km,[1],40000 M⁻¹ s⁻¹
same,Km,[2],13 ± 4 µM
same,kcat,[2],0.9 ± 0.1 s⁻¹
same,kcat/Km,[2],70000 M⁻¹ s⁻¹
same,Km,[3],19 ± 6 µM
same,kcat,[3],2.1 ± 0.2 s⁻¹
same,kcat/Km,[3],110000 M⁻¹ s⁻¹
